Results taken from IntAct's records for PubMed 17537733.

Target: kdm1a_human KDM1A (UniProt O60341)

## Histone H3.1t (Homo sapiens) (from UniProt Q16695) K5M
  effect of a mutation on the interaction: decreasing interaction
